This series addresses T1, Lmo1172 (UniProt Q92CN5).
T1 sequence: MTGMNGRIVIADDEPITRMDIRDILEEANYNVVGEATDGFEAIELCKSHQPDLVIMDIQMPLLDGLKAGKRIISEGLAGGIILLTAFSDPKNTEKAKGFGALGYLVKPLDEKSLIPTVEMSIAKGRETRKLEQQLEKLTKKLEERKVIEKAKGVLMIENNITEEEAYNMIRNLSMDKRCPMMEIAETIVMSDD
As to the kind of experiment: EMSA. The note with it: EMSA: 200 ng DNA in Beyotime binding buffer, 6% non-denaturing PAGE, ethidium bromide staining; salt, pH and temperature not stated.

“CTAATTCACCTCCACTAATATTTTACAACGAATTTACCCATAATAACCAAAAATGTAATGAAATGTCCGATTCTTGTCATGAACGACCAAAAAAGAGCAGAATTGCCGATTTTTTGGATACATTTCAGAATATTCGAACGTGTAAAAAGGACTGTATAATAGGCTTAAAAACCCATATTAATATTTTATTTAAGTGAGTTTATTCATAAAAAAAACCAACTGCAAAAGAATGTTCACAGTTGGCTTTTCCATTTTA (double strand) [P2 promoter DNA]”: the binding entry was “no binding”.
